± gives the uncertainty stated by the source.
B1: POU domain, class 2, transcription factor 2, residues 200 to 269; numbered along this chain, P09086 (parent)
chain: LEELEQFARTFKQRRIKLGFTQGDVGLAMGKLYGNDFSQTTISRFEALNLSFKNMCKLKPLLEKWLNDAE

Variants of: B1
Experiment: abundance fitness (aPCA) (normalised: wild type 0, dead -1); higher = more abundant; growth selection in yeast, the domain comes from the species named
Conditions: Homo sapiens

| Variant | abundance fitness |
| --- | --- |
| LEELEQFARTFKQRRIKLGFTQGDVGLAMGKLYGNDFSNTTISRFEALNLSFKNMCKLKPLLEKWLNDAE [Q39N] | -0.306 ± 0.097 |
| LEELEQTARTFKQRRIKLGFTQGDVGLAMGKLYGNDFSQTTISRFEALNLSFKNMCKLKPLLEKWLNDAE [F7T] | -0.281 ± 0.057 |
| LEELEQEARTFKQRRIKLGFTQGDVGLAMGKLYGNDFSQTTISRFEALNLSFKNMCKLKPLLEKWLNDAE [F7E] | -0.357 ± 0.076 |
| LEELEQFARTFKQRRIKLGFTQGDVGLAMGSLYGNDFSQTTISRFEALNLSFKNMCKLKPLLEKWLNDAE [K31S] | -0.033 ± 0.061 |
| LEELEQFARTFKQRRIKLGFTQGDVGLAMGRLYGNDFSQTTISRFEALNLSFKNMCKLKPLLEKWLNDAE [K31R] | 0.002 ± 0.038 |
| LEELEQFARTFKQRRIKLGFTQGDVGLAMGILYGNDFSQTTISRFEALNLSFKNMCKLKPLLEKWLNDAE [K31I] | -0.136 ± 0.062 |
| LEELEQFARTFKQRRIKLGFTQGDVGLAMGKLYGNDFSQQTISRFEALNLSFKNMCKLKPLLEKWLNDAE [T40Q] | 0.009 ± 0.064 |
| LEELEQFARTFKQRRIKLGFAQGDVGLAMGKLYGNDFSQTTISRFEALNLSFKNMCKLKPLLEKWLNDAE [T21A] | -0.138 ± 0.04 |
| LEELEQFARTFKQRRIKLGFTQGDVGLAMGKLYGNDFSQTTISRFEALNLSFKNMCKLKPLLEKWLNDGE [A69G] | -0.126 ± 0.049 |
| LEELEQFARTFKQRRIKLGFTQGDVGLAMGKLYGNDFSQTTISRFEALNLSFKNMCKLKPLLEKWLNDYE [A69Y] | -0.107 ± 0.093 |
| LEELEQFARTFKQRRIKLGFTQGDVGLAMGKLYGNDFSQTTISRFEALNLSFKNMCKLEPLLEKWLNDAE [K59E] | -0.293 ± 0.047 |
| LEELEQFARTFKQRRIKLGFTQGDVGLAMGKLYGNDFSQTTISRGEALNLSFKNMCKLKPLLEKWLNDAE [F45G] | -1.05 ± 0.15 |
| LEELEQFARTFKQRRIKLGFTAGDVGLAMGKLYGNDFSQTTISRFEALNLSFKNMCKLKPLLEKWLNDAE [Q22A] | 0.004 ± 0.05 |
| LEELEQFARTFKQRRIKLGFTGGDVGLAMGKLYGNDFSQTTISRFEALNLSFKNMCKLKPLLEKWLNDAE [Q22G] | -0.187 ± 0.034 |
| LEELEQFARTFKQRRIKLGFTQGDVGLAMGKLYGNDFSQTTISRFEALNLSPKNMCKLKPLLEKWLNDAE [F52P] | -0.115 ± 0.099 |
| LEELEQFARTFKQRRIKLGFTQGDVGLAMGKTYGNDFSQTTISRFEALNLSFKNMCKLKPLLEKWLNDAE [L32T] | -0.071 ± 0.059 |
| LEELEQFARTFKQRRIKLGFTQGDVGLAMGKQYGNDFSQTTISRFEALNLSFKNMCKLKPLLEKWLNDAE [L32Q] | 0.04 ± 0.072 |
| LEELEQFARTFKQRRIKLGFTQGDVGLAMGKWYGNDFSQTTISRFEALNLSFKNMCKLKPLLEKWLNDAE [L32W] | -0.201 ± 0.051 |
| LEELEQFARTFKQRRIKLGFTQGDVYLAMGKLYGNDFSQTTISRFEALNLSFKNMCKLKPLLEKWLNDAE [G26Y] | -0.085 ± 0.076 |

| Variant | abundance fitness |
| --- | --- |
| LEELAQFARTFKQRRIKLGFTQGDVGLAMGKLYGNDFSQTTISRFEALNLSFKNMCKLKPLLEKWLNDAE [E5A] | 0.005 ± 0.042 |
| LEELEQFARTFKQRRIKLGFTQGDVGLAMGKLYGNDFSQTTISRFEALNLSFKNMCKLKPLLEKWLNFAE [D68F] | 0.085 ± 0.11 |
| LEELEQFARTFKQRRIKLGFTQGDVGLAMGKLYGNDFSQTTISRFEALNLSFKNMCKLKPLEEKWLNDAE [L62E] | -0.974 ± 0.13 |
| LEELEQFARTFKQRRIKLGFTQGDVGLAMGKLYGNDFSQTTISRFEALNLSFKNMCKLKPLREKWLNDAE [L62R] | -0.968 ± 0.11 |
| LEELEQFKRTFKQRRIKLGFTQGDVGLAMGKLYGNDFSQTTISRFEALNLSFKNMCKLKPLLEKWLNDAE [A8K] | -0.856 ± 0.18 |
| LEELEQFARTFKQRRIKLGFTQGDVGLAMGKLYGNDFSQTTISRFEPLNLSFKNMCKLKPLLEKWLNDAE [A47P] | -0.641 ± 0.11 |
| LEELEQFARTFKQRRIKLGFTQGDVGLAMGKLYGNDFSQTTISRFEFLNLSFKNMCKLKPLLEKWLNDAE [A47F] | -0.173 ± 0.075 |
| LEELEQFARTFKQRRIKLGFTQGDVGLAMGKLYGNDFSQTTISRFEELNLSFKNMCKLKPLLEKWLNDAE [A47E] | 0.082 ± 0.044 |
| LEELEQFARTFKERRIKLGFTQGDVGLAMGKLYGNDFSQTTISRFEALNLSFKNMCKLKPLLEKWLNDAE [Q13E] | 0.06 ± 0.048 |
| LEELEQFARTFKKRRIKLGFTQGDVGLAMGKLYGNDFSQTTISRFEALNLSFKNMCKLKPLLEKWLNDAE [Q13K] | -0.041 ± 0.05 |
| LEELEQFARTFKQRRIKLGFTQYDVGLAMGKLYGNDFSQTTISRFEALNLSFKNMCKLKPLLEKWLNDAE [G23Y] | -0.218 ± 0.096 |
| LEELEQFARTFKQRRIKLGFTQGDVGLAMGKLYGFDFSQTTISRFEALNLSFKNMCKLKPLLEKWLNDAE [N35F] | -0.029 ± 0.077 |
| LEELEQFARTFKQRRIKLGFTQGDVGLAMGKLYGTDFSQTTISRFEALNLSFKNMCKLKPLLEKWLNDAE [N35T] | -0.203 ± 0.067 |
| LEELEQFARTFKQRRIKLGFTQGIVGLAMGKLYGNDFSQTTISRFEALNLSFKNMCKLKPLLEKWLNDAE [D24I] | -0.792 ± 0.28 |
| LEELEQFARTFKQRRIKLGFTQGDVGLAMYKLYGNDFSQTTISRFEALNLSFKNMCKLKPLLEKWLNDAE [G30Y] | -0.051 ± 0.076 |
| LEELEQFARTFKQRRIKLGFTQGDVGLAMCKLYGNDFSQTTISRFEALNLSFKNMCKLKPLLEKWLNDAE [G30C] | -0.068 ± 0.066 |
| LEELEQFARTFKQRRIKLGFTQGDVGLAMGKLYGNDFSQTTISRFEALNLSFKNMCKLKPLLEKWENDAE [L66E] | -0.409 ± 0.077 |
| LEELEQFARTFKQRRIKLGFTQGDVGLAMGKLYGNDFSQTTISRFEALNLSFKNMCKLKPLLEKWRNDAE [L66R] | -0.837 ± 0.079 |
| LEELEQFARTFKQRRIKRGFTQGDVGLAMGKLYGNDFSQTTISRFEALNLSFKNMCKLKPLLEKWLNDAE [L18R] | -0.233 ± 0.035 |
